Data as given in article PMC4817253.

Test system: Nc1ncnc2c1ncn2[C@@H]1O[C@H](CO[P@](=O)(O)O[C@@H]2[C@H](O)[C@@H](CO[P@](=O)(O)O[C@@H]3[C@H](O)[C@@H](CO[P@](=O)(O)O[P@@](=O)(O)OP(=O)(O)O)O[C@H]3n3cnc4c(N)ncnc43)O[C@H]2n2cnc3c(N)ncnc32)[C@@H](O)[C@H]1O
Assay: purified protein
Conditions: pH 7.2; 30.0 °C

How did the Km turn out when “MHV NS2 (Murine hepatitis virus strain A59)” was run?
Its Km is 6.7 ± 1.6 µM.

“MERS-CoV NS4b (Human betacoronavirus 2c EMC/2012)” was tested. Which Km did it give?
Its Km is 2.6 ± 0.6 µM.

And the kcat/Km?
Its kcat/Km is 800000 M⁻¹ s⁻¹.

Which Km does the source give for “HKU5 NS4b (Pipistrellus bat coronavirus HKU5)” here?
Its Km is 1.3 ± 0.3 µM.

And the kcat/Km?
The kcat/Km was 1.4e+06 M⁻¹ s⁻¹.

How did the Km turn out when SC2013 NS4b (BtVs-BetaCoV/SC2013) was run?
The Km was 2.9 ± 0.6 µM.

What about the kcat/Km of the same substance?
Its kcat/Km is 800000 M⁻¹ s⁻¹.
